Measurements taken from the RNAGym collection of RNA variant scans (doi:10.1073/pnas.2313332121).
This sample holds only a part of the variants without activity.

B1: TPR 5TU (parent)
chain: GGAUCUUCUCGAUCUAACAAAAAAGACAAAUCUGCCACAAAGCUUGAGAGCAUCUUCGGAUGCAGAGGCGGCAGCCUUCGGUGGCGCGAUAGCGCCAACGUUCUCAACUAUGACACGCAAAACGCGUGCUCCGUUGAAUGGAGUUUAUCAUG

Variants of: B1
Assay: polymerase ribozyme fitness, log enrichment relative to wild type (log ratio); higher = more active; in vitro selection for triplet polymerase activity
Method in brief: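 In triplicate, a single round of in vitro selection was run on each mutant library, PCR-built and transcribed, covering one subunit of a heterodimeric triplet polymerase ribozyme. Frozen incubation at −7 °C followed annealing with a biotinylated primer, partner subunit and triplets, and extended constructs were then gel-excised, streptavidin-captured and taken through RT-PCR. Fitness is the logarithm of genotype enrichment over wild-type enrichment, from inverse-variance-weighted replicate averages of Illumina-sequenced inputs and outputs. […] only genotypes with ≥10 input reads and ≥1 read per output were kept.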

Row | Variant | polymerase ribozyme fitness (log ratio)
1 | U61G C87U C125G | ≤ -4.2
2 | A60C C103A | ≤ -4.2
3 | G62A G140A | -3.95
4 | G62A C85A A121U U134C A137G | -3.02
5 | A60C G83U A121U | -2.35
6 | U61G C93G C99G C123G C125G | ≤ -4.2
7 | C63G C76U | 0.0444
8 | A60U C132U | -0.719
9 | A60U G84A C116U | -1.05
10 | A60C G62C G83U G133A | ≤ -4.2
11 | U61A C75G | -3.89
12 | A60G C85G G94A | -0.0985
13 | C63G A73G | -0.51
14 | U61G G136C | -2.91
15 | A60C C87A A98U | ≤ -4.2
16 | U61A A66U U82C G92C C95G | ≤ -4.2
17 | U61G G83U G86A C149U | ≤ -4.2
18 | A60G G126A | 1.03
19 | G59U G94U C105U G124U G143C | -3.65
20 | U61C C96A A121G | -2.74
21 | U61A A97C | -1.48
22 | A60U A91G G141A U145G | -3.98
23 | U61A G124C | -2
24 | A60G A73G G92U | 0.661

Row | Variant | polymerase ribozyme fitness (log ratio)
25 | G59U G88U A121U U127A U134G | ≤ -4.2
26 | G62C G68U A89G C108A A113U | ≤ -4.2
27 | G62C C63U C79A C85U A98U C99U C131A U135C U144A | ≤ -4.2
28 | G62U A73U | -3.59
29 | U61A G67A C76A G81A C85A | ≤ -4.2
30 | G62C A106U C125U | -3.86
31 | U61C U104G G126C | -2.04
32 | G62U C72G C93A | ≤ -4.2
33 | U61G C95G | -2.32
34 | U61G C95U | -2.07
35 | A60G C129G | -2.25
36 | A60G G70A C108G | ≤ -4.2
37 | U61A G86A A97U C99G A113U G152U | ≤ -4.2
38 | A60G U144A | -0.159
39 | G62A C87U A120G A142C | -3.11
40 | G62A A73C C75G C87U C103G C132G U145G U146A | ≤ -4.2
41 | G59U U148G | -3.83
42 | G59U U148C | -1.18
43 | A60G G80C G140A G141U | ≤ -4.2
44 | A60G A89G | -0.778
45 | A60U C79U G81U A91G C95G U102A | ≤ -4.2
46 | U61A A142G | -1.25
47 | G62A A98U | -1.42
48 | A60G G70A U78C U130A | ≤ -4.2

Row | Variant | polymerase ribozyme fitness (log ratio)
49 | U61A C85A G141C | -2.36
50 | U61A U101G | -1.11
51 | A60G C75G | -2.36
52 | U61G C99U | -2.77
53 | U61A A73G | -1.42
54 | U61A A73C | -3.91
55 | G62U C132A | ≤ -4.2
56 | A60C A89C G94A | -1.69
57 | U61A G86A A122G | -2.67
58 | G59U U139C | -3.8
59 | U61A G65A G81U C85U U102G | ≤ -4.2
60 | A60U U78C A91U C116A G117U | ≤ -4.2
61 | U61C A64G | ≤ -4.2
62 | U61A A66C G74A U90G A91G G133U A138C | ≤ -4.2
63 | U61A G140A | ≤ -4.2
64 | A60U U77A | ≤ -4.2
65 | C63A A107C U111C A122G | ≤ -4.2
66 | C63A C87U G88A A115U | ≤ -4.2
67 | A60U C85U G88U C99U | ≤ -4.2
68 | A60U G65C | -3.98
69 | U61A G94A | -2.08
70 | C63A A64C C72U A89U U130G | ≤ -4.2
71 | A60G G67U C93U C99U C129U | ≤ -4.2
72 | U61G C95U A97G C105A A106U | ≤ -4.2

Row | Variant | polymerase ribozyme fitness (log ratio)
73 | A60C C105G | -3.44
74 | G62C C95U C96A | -3.59
75 | A60U U130G G143C | ≤ -4.2
76 | A60U A106G | -0.0172
77 | A60U G81U C85U G92U C93G C96A C103U G128A | ≤ -4.2
78 | A60U G70A C85U G86A | ≤ -4.2
79 | A60C G80A | -2.27
80 | G62A U130G | -3.67
81 | A60G A107U | -3.1
82 | U61C C76A | -2.59
83 | U61C G80C C85U C99U U146A | ≤ -4.2
84 | A60G U102A U109G A115C | -3.77
85 | A60C C93U C123A | -1.12
86 | A60G C76A A91G C95U A107C | ≤ -4.2
87 | A60C U82G G84A | -1.71
88 | A60G A115G U144C U146A A150U | -3.85
89 | G62C C63A C116G | -1.77
90 | A60G U90G U145A | ≤ -4.2
91 | A60U G80A C85A C93A | ≤ -4.2
92 | G62U G124C | -1.42
93 | A60G C95U C96A | -1.03
94 | C63A A147C | 0.331
95 | A60U C85A U101A A119G U127C | ≤ -4.2
96 | U61A C125A | -2.73

Row | Variant | polymerase ribozyme fitness (log ratio)
97 | U61A C125U | -1.86
98 | A60U C85A U145A | -1.8
99 | A60C C79U U102A C103A A142G | ≤ -4.2
100 | U61A U90C C96A A115U G152U | ≤ -4.2
101 | A60C C76U G88U C116G U135G A142G U148G | ≤ -4.2
102 | U61G A66C A150G | ≤ -4.2
103 | U61C G81C C95G C123U A142G | ≤ -4.2
104 | A60G U78A A106G C118U | ≤ -4.2
105 | U61A U77A C95U A97C U139A A150G | ≤ -4.2
106 | U61G C75U U144C | -1.52
107 | C63A G117U A119C | 0.257
108 | C63G A64C C72U C95U C105G A120U G141U | ≤ -4.2
109 | U61G C87A A150G | ≤ -4.2
110 | G62U U102A | -1.64
111 | A60G G70C U77A U135G | ≤ -4.2
112 | U61C C69U G70U G86U A107C | ≤ -4.2
113 | U61G C85A G141A | -1.58
114 | C63G A110U G136U U148A | ≤ -4.2
115 | G62A G117A U134C A150G | ≤ -4.2
116 | C63A G92U C116U | -3.98
117 | A60U U61A C69G C96U | ≤ -4.2
118 | A60G U104G G136U U144C | -3.29
119 | G62A C69U | -2.82
120 | A60G U139C G141C U144A | -4.04

Row | Variant | polymerase ribozyme fitness (log ratio)
121 | U61A U144C | -2.19
122 | U61A C87U | -2.83
123 | U61A G94U A106G | -2.71
124 | A60U G143A | -1.07
125 | A60U C131A | -2.81
126 | U61A A137C G140A | -4.19
127 | U61A G84A | -1.38
128 | U61A C87U G92A A106G A122U | -2.84
129 | U61A C85U A97C A120G | -3.26
130 | U61A C118A | -2
131 | A60U G92U G141C | -2.82
132 | A60U C63A C79G C96U A122U C123U | ≤ -4.2
133 | A60U U139A A150U | ≤ -4.2
134 | A60C A97U | -1.64
135 | A60G C75G G81C G94U C103A A107U U111G | ≤ -4.2
136 | A60C G81C C87A | ≤ -4.2
137 | U61A C96G | -2.6
138 | A60C G81A C87A G133C G143A U148A | ≤ -4.2
139 | U61A C95U | -0.916
140 | U61A C85U | -1.28
141 | U61A C85A | -3.12
142 | U61A C85G | ≤ -4.2
143 | C63A C87A A91G | ≤ -4.2
144 | U61A A97G G136A | -0.653

Row | Variant | polymerase ribozyme fitness (log ratio)
145 | G62C A115C | -1.06
146 | A60G C79G | -3.75
147 | A60C U61C C76U A121G | ≤ -4.2
148 | U61A C75U C125A G128A A142U A147G | ≤ -4.2
149 | A60U A91U C96A C103A A115U | ≤ -4.2
150 | A60G G128U | -2.75
151 | U61A G88U | ≤ -4.2
152 | G62A A64U C69U C76U G84A C105G C116G | ≤ -4.2
153 | A60U C69A | -0.294
154 | U61A C149A | ≤ -4.2
155 | U61A C96G G117A | -2.2
156 | G62C G94C | -2.03
157 | G62A C85A U151C | ≤ -4.2
158 | G62A G141U | 1.11
159 | G59U U78G C79A C87U U109G A110U | -3.99
160 | A60C C85A C116A | -1.6
161 | A60U C85G C96U C105U | ≤ -4.2
162 | A60G C93G A147G | -4.1
163 | A60G G117C G124U | 0.122
164 | U61A G65C C85A C96G U151C | ≤ -4.2
165 | A60G G70C A89C | -3.24
166 | U61G C96U | -1.29
167 | A60U C93U U151G | ≤ -4.2
